From the supplement of paper PMC9112550, “Optimization of the antimicrobial peptide Bac7 by deep mutational scanning” (BMC Biology, 2022)

Test system: Escherichia coli TOP10
Assay: shrunken log2 fold change of peptide-encoding DNA abundance (4.5 h post-induction vs induction); higher = less antimicrobial activity (less host growth inhibition)
Conditions: time post-induction: 4.5 h; library: site-saturation at positions 5, 18, 19, 20
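Also: peptides expressed intracellularly from a pBAD plasmid library in pooled LB shake-flask culture, induced with 0.3% L-arabinose, DNA abundance read by NGS, three biological replicates, DESeq2 with apeglm shrinkage.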

Sequence	shrunken log2 fold change
RRIRFRPPRLPRPRPRPKANPRP	0.00613
RRIRFRPPRLPRPRPRPRRCPRP	0.143
RRIRKRPPRLPRPRPRPHKIPRP	0.134
RRIRCRPPRLPRPRPRPIMVPRP	-0.115
RRIRFRPPRLPRPRPRPQGDPRP	0.014
RRIRDRPPRLPRPRPRPVFQPRP	-0.134
RRIRIRPPRLPRPRPRPIARPRP	0.136
RRIRERPPRLPRPRPRPMRWPRP	0.472
RRIRIRPPRLPRPRPRPGWFPRP	-0.141
RRIRSRPPRLPRPRPRPESKPRP	0.385
RRIRHRPPRLPRPRPRPHHAPRP	-0.0366
RRIRIRPPRLPRPRPRPFQDPRP	0.0408
RRIRYRPPRLPRPRPRPWAHPRP	-0.324
RRIRPRPPRLPRPRPRPAHAPRP	0.236
RRIRPRPPRLPRPRPRPTFRPRP	0.0885
RRIRYRPPRLPRPRPRPENKPRP	-0.725
RRIRFRPPRLPRPRPRPGEPPRP	0.118
RRIRNRPPRLPRPRPRPAFCPRP	0.0699
RRIRQRPPRLPRPRPRPTHWPRP	0.427
RRIRERPPRLPRPRPRPIRRPRP	-0.17
RRIRDRPPRLPRPRPRPWDYPRP	-0.00965
RRIRFRPPRLPRPRPRPFRRPRP	-0.0629
RRIRGRPPRLPRPRPRPFFVPRP	0.246
RRIRFRPPRLPRPRPRPDVEPRP	0.00816
RRIRTRPPRLPRPRPRPPYLPRP	-0.365

Sequence	shrunken log2 fold change
RRIRERPPRLPRPRPRPHPLPRP	-0.0971
RRIRTRPPRLPRPRPRPMMNPRP	0.0667
RRIRIRPPRLPRPRPRPEGKPRP	-0.0199
RRIRKRPPRLPRPRPRPPYVPRP	0.0388
RRIRQRPPRLPRPRPRPMFCPRP	0.0313
RRIRRRPPRLPRPRPRPCILPRP	-0.208
RRIRERPPRLPRPRPRPMVGPRP	0.17
RRIRQRPPRLPRPRPRPYIQPRP	-0.32
RRIRTRPPRLPRPRPRPQQMPRP	-0.0941
RRIRCRPPRLPRPRPRPGSPPRP	0.169
RRIRVRPPRLPRPRPRPCQTPRP	-0.03
RRIRTRPPRLPRPRPRPYGHPRP	-0.587
RRIRMRPPRLPRPRPRPHYCPRP	-0.116
RRIRHRPPRLPRPRPRPGDGPRP	0.209
RRIRSRPPRLPRPRPRPAQRPRP	0.105
RRIRWRPPRLPRPRPRPSWLPRP	-0.167
RRIRDRPPRLPRPRPRPKCHPRP	0.028
RRIRPRPPRLPRPRPRPDCTPRP	-0.167
RRIRTRPPRLPRPRPRPVGIPRP	-0.0568
RRIRNRPPRLPRPRPRPMRPPRP	0.537
RRIRGRPPRLPRPRPRPVEPPRP	0.79
RRIRNRPPRLPRPRPRPAADPRP	0.342
RRIRQRPPRLPRPRPRPLNNPRP	-0.586
RRIRRRPPRLPRPRPRPGRNPRP	-0.000492
RRIRNRPPRLPRPRPRPEVPPRP	0.095

Sequence	shrunken log2 fold change
RRIRLRPPRLPRPRPRPVYVPRP	-0.367
RRIRYRPPRLPRPRPRPYELPRP	-0.0164
RRIRRRPPRLPRPRPRPGWPPRP	0.858
RRIRLRPPRLPRPRPRPCRLPRP	-0.286
RRIRARPPRLPRPRPRPLSSPRP	0.2
RRIRFRPPRLPRPRPRPIPVPRP	0.0949
RRIRRRPPRLPRPRPRPEGIPRP	0.252
RRIRERPPRLPRPRPRPDGWPRP	0.0267
RRIRWRPPRLPRPRPRPLYEPRP	-0.255
RRIRSRPPRLPRPRPRPPPTPRP	0.914
RRIRYRPPRLPRPRPRPTIPPRP	-0.572
RRIRIRPPRLPRPRPRPGKNPRP	-0.597
RRIRIRPPRLPRPRPRPFSIPRP	-0.643
RRIRVRPPRLPRPRPRPPSDPRP	0.197
RRIRLRPPRLPRPRPRPSSVPRP	0.0713
RRIRARPPRLPRPRPRPFRQPRP	0.0566
RRIRERPPRLPRPRPRPMMPPRP	0.0391
RRIRLRPPRLPRPRPRPMQRPRP	0.0784
RRIRRRPPRLPRPRPRPANVPRP	-0.15
RRIRPRPPRLPRPRPRPGQNPRP	0.0194
RRIRGRPPRLPRPRPRPVPCPRP	0.463
RRIRKRPPRLPRPRPRPHSTPRP	-0.0637
RRIRHRPPRLPRPRPRPCCDPRP	-0.228
RRIRNRPPRLPRPRPRPYRTPRP	-0.268
RRIRHRPPRLPRPRPRPKFRPRP	-0.317

Sequence	shrunken log2 fold change
RRIRDRPPRLPRPRPRPGYGPRP	-0.0481
RRIRNRPPRLPRPRPRPAACPRP	-0.0409
RRIRLRPPRLPRPRPRPRHAPRP	0.537
RRIRYRPPRLPRPRPRPIKCPRP	-0.00104
RRIRQRPPRLPRPRPRPNEPPRP	-0.0605
RRIRERPPRLPRPRPRPVLTPRP	-0.126
RRIRKRPPRLPRPRPRPRNEPRP	0.0551
RRIRIRPPRLPRPRPRPCNRPRP	-0.425
RRIRARPPRLPRPRPRPRVYPRP	0.441
RRIRIRPPRLPRPRPRPIFLPRP	-0.416
RRIRERPPRLPRPRPRPAGSPRP	-0.202
RRIRYRPPRLPRPRPRPEYAPRP	-0.0128
RRIRNRPPRLPRPRPRPLWWPRP	0.605
RRIRMRPPRLPRPRPRPPAWPRP	1.22
RRIRSRPPRLPRPRPRPYINPRP	-0.879
RRIRWRPPRLPRPRPRPGHAPRP	0.234
RRIRCRPPRLPRPRPRPTDEPRP	2.52
RRIRPRPPRLPRPRPRPNACPRP	0.195
RRIRLRPPRLPRPRPRPMYFPRP	-0.252
RRIRVRPPRLPRPRPRPPLVPRP	0.227
RRIRCRPPRLPRPRPRPYVSPRP	-0.207
RRIRKRPPRLPRPRPRPAISPRP	0.214
RRIRNRPPRLPRPRPRPNSEPRP	-0.258
RRIRCRPPRLPRPRPRPGDKPRP	-0.441
RRIRHRPPRLPRPRPRPPTPPRP	0.518

Sequence	shrunken log2 fold change
RRIRGRPPRLPRPRPRPQQNPRP	0.383
RRIRYRPPRLPRPRPRPYLGPRP	-0.261
RRIRTRPPRLPRPRPRPFVMPRP	-0.277
RRIRQRPPRLPRPRPRPWNDPRP	-0.373
RRIRCRPPRLPRPRPRPFMLPRP	-0.697
RRIRERPPRLPRPRPRPIFFPRP	0.0602
RRIRERPPRLPRPRPRPPRFPRP	0.26
RRIRTRPPRLPRPRPRPKLNPRP	0.097
RRIRPRPPRLPRPRPRPKIIPRP	-0.0308
RRIRPRPPRLPRPRPRPCFWPRP	0.179
RRIRIRPPRLPRPRPRPWMGPRP	-0.185
RRIRARPPRLPRPRPRPPIEPRP	0.188
RRIRYRPPRLPRPRPRPFITPRP	-0.709
RRIRGRPPRLPRPRPRPWLHPRP	0.106
RRIRVRPPRLPRPRPRPLLIPRP	-0.304
RRIRNRPPRLPRPRPRPPWYPRP	-0.224
RRIRERPPRLPRPRPRPEASPRP	-0.0341
RRIRKRPPRLPRPRPRPALTPRP	0.622
RRIRDRPPRLPRPRPRPIHPPRP	-0.125
RRIRNRPPRLPRPRPRPDWQPRP	0.184
RRIRKRPPRLPRPRPRPGGFPRP	0.223
RRIRSRPPRLPRPRPRPLYYPRP	-0.547
RRIRGRPPRLPRPRPRPLACPRP	0.975
RRIRARPPRLPRPRPRPTADPRP	0.83
RRIRHRPPRLPRPRPRPLSIPRP	-0.326

Sequence	shrunken log2 fold change
RRIRTRPPRLPRPRPRPQQWPRP	0.46
RRIRKRPPRLPRPRPRPAAPPRP	1.6
RRIRERPPRLPRPRPRPCIKPRP	-0.363
RRIRIRPPRLPRPRPRPLGPPRP	0.0624
RRIRARPPRLPRPRPRPRVIPRP	-0.0156
RRIRQRPPRLPRPRPRPMPEPRP	-0.237
RRIRSRPPRLPRPRPRPQFRPRP	-0.0597
RRIRDRPPRLPRPRPRPRASPRP	0.214
RRIRDRPPRLPRPRPRPLVAPRP	0.912
RRIRVRPPRLPRPRPRPYLSPRP	-0.491
RRIRDRPPRLPRPRPRPFRIPRP	0.0432
RRIRIRPPRLPRPRPRPMSPPRP	0.111
RRIRGRPPRLPRPRPRPSEIPRP	-0.193
RRIRLRPPRLPRPRPRPYHDPRP	-0.131
RRIRNRPPRLPRPRPRPPSHPRP	-0.301
RRIRSRPPRLPRPRPRPNPCPRP	-0.574
RRIRQRPPRLPRPRPRPTQTPRP	-0.00783
RRIRCRPPRLPRPRPRPNCLPRP	-0.19
RRIRFRPPRLPRPRPRPKWFPRP	0.045
RRIRKRPPRLPRPRPRPSNHPRP	-0.347
RRIRSRPPRLPRPRPRPEIGPRP	0.291
RRIRLRPPRLPRPRPRPQQKPRP	-0.167
RRIRSRPPRLPRPRPRPWCAPRP	0.0451
RRIRNRPPRLPRPRPRPPMAPRP	0.361
RRIRRRPPRLPRPRPRPMYTPRP	-0.219
